The source of these data is the Immune Epitope Database (IEDB).

Assay [1] concerns the target HLA-A*31:01. Briefly: IEDB peptide-MHC binding, purified MHC/direct/fluorescence; filed as Kd, often an IC50 or EC50 that approximates it; ≥ and ≤ were set here for values at or beyond the usual limits of such assays. Particulars: source organism: Mycobacterium tuberculosis.
The target in assay [2] is HLA-B*18:01. Described as above. Particulars: source organism: Mycobacterium tuberculosis.
The target of another assay is HLA-B*15:17. The description is as above. Particulars: source organism: Mycobacterium tuberculosis.
Assay [3] has as its target HLA-B*58:01. The assay is described as above. The note with it: source organism: Mycobacterium tuberculosis.
The next assay has as its target HLA-A*26:02. The assay is described as above. The note with it: source organism: Mycobacterium tuberculosis str. Haarlem.
A further assay deals with HLA-B*40:01. The assay is described as above. The note with it: source organism: Mycobacterium tuberculosis.
The next assay has as its target HLA-B*57:01. The assay is described as above. The note with it: source organism: Mycobacterium tuberculosis.
In assay [4] the target is HLA-A*01:01. The description is as above. The note with it: source organism: Mycobacterium tuberculosis.
For a further assay, the target named is HLA-A*69:01. Described as above. The note with it: source organism: Mycobacterium tuberculosis.
Assay [5] concerns the target HLA-B*08:01. Described as above. The note with it: source organism: Mycobacterium tuberculosis str. Haarlem.
For assay [6], the target named is HLA-B*07:02. Described as above. Particulars: source organism: Mycobacterium tuberculosis.
For another assay, the target named is HLA-B*46:01. The description is as above. The note with it: source organism: Mycobacterium tuberculosis.
Assay [7] has as its target HLA-A*68:02. The description is as above. Particulars: source organism: Mycobacterium tuberculosis.
The target in assay [8] is HLA-A*11:01. The assay is described as above. Particulars: source organism: Mycobacterium tuberculosis.
A further assay concerns the target HLA-B*48:01. Described as above. The note with it: source organism: Mycobacterium tuberculosis.
The next assay concerns the target HLA-B*08:02. The assay is described as above. The note with it: source organism: Mycobacterium tuberculosis str. Haarlem.
The next assay deals with HLA-B*08:03. Described as above. Particulars: source organism: Mycobacterium tuberculosis str. Haarlem.
The next assay has as its target HLA-B*83:01. The assay can be described thus: IEDB peptide-MHC binding, purified MHC/competitive/fluorescence; filed as Kd, often an IC50 or EC50 that approximates it; ≥ and ≤ were set here for values at or beyond the usual limits of such assays.
The next assay addresses HLA-A*02:06. The description is as above. The note with it: source organism: Mycobacterium tuberculosis C.
In the next assay the target is HLA-B*15:01. The assay is described as above. The note with it: source organism: Mycobacterium tuberculosis C.
The target in the next assay is HLA-A*26:03. Described as above. Particulars: source organism: Mycobacterium tuberculosis C.
The target of another assay is HLA-B*15:42. The description is as above.
In another assay the target is HLA-B*45:06. Described as above.
The next assay has as its target HLA-B*27:05. The assay is described as above. Particulars: source organism: Mycobacterium tuberculosis C.
The target of another assay is HLA-A*24:03. Briefly: IEDB peptide-MHC binding, purified MHC/direct/fluorescence; filed as Kd, often an IC50 or EC50 that approximates it; ≥ and ≤ were set here for values at or beyond the usual limits of such assays. Particulars: source organism: Entamoeba histolytica HM-1:IMSS.
The next assay addresses HLA-A*32:07. Briefly: IEDB peptide-MHC binding, purified MHC/competitive/fluorescence; filed as Kd, often an IC50 or EC50 that approximates it; ≥ and ≤ were set here for values at or beyond the usual limits of such assays. The note with it: source organism: Entamoeba histolytica.
In another assay the target is HLA-C*04:01. Described as above. Particulars: source organism: Entamoeba histolytica.
The target in another assay is HLA-C*14:02. The description is as above. The note with it: source organism: Entamoeba histolytica.
The target in assay [9] is HLA-A*24:02. Described as above. Particulars: source organism: Entamoeba histolytica.
A further assay has as its target HLA-C*06:02. Described as above. Particulars: source organism: Entamoeba histolytica.
A further assay deals with HLA-A*32:15. Described as above. Particulars: source organism: Entamoeba histolytica.
The target in another assay is HLA-B*14:02. Briefly: IEDB peptide-MHC binding, purified MHC/competitive/fluorescence; ≥ and ≤ were set here for values at or beyond the usual limits of such assays. Particulars: source organism: Homo sapiens.
Assay [10] deals with HLA-A*31:01. The assay is described as above. Particulars: source organism: Homo sapiens.
Assay [11] concerns the target HLA-B*18:01. Described as above. The note with it: source organism: Homo sapiens.
A further assay addresses HLA-A*02:01. Described as above. The note with it: source organism: Homo sapiens.
Assay [12] deals with HLA-B*58:01. Described as above. Particulars: source organism: Homo sapiens.
The target of a further assay is HLA-B*51:01. The assay is described as above. The note with it: source organism: Homo sapiens.
Assay [13] has as its target HLA-A*01:01. The assay is described as above. The note with it: source organism: Homo sapiens.
The target of a further assay is HLA-B*44:03. The assay is described as above. Particulars: source organism: Homo sapiens.
Assay [14] deals with HLA-B*08:01. The assay is described as above. Particulars: source organism: Homo sapiens.
In assay [15] the target is HLA-B*07:02. The assay is described as above. The note with it: source organism: Homo sapiens.
Another assay concerns the target HLA-A*29:02. Described as above. Particulars: source organism: Homo sapiens.
Assay [16] concerns the target HLA-A*68:02. Described as above. Particulars: source organism: Homo sapiens.
The target in the next assay is HLA-A*25:01. Described as above. Particulars: source organism: Homo sapiens.
The target in assay [17] is HLA-A*11:01. The description is as above. Particulars: source organism: Homo sapiens.
In assay [18] the target is HLA-A*24:02. The description is as above. The note with it: source organism: Homo sapiens.
The target in the next assay is HLA-A*03:01. Described as above. Particulars: source organism: Homo sapiens.
For another assay, the target named is HLA-B*40:02. Described as above. The note with it: source organism: Homo sapiens.
The target in a further assay is HLA-B*53:01. The assay is described as above. Particulars: source organism: Homo sapiens.
For another assay, the target named is HLA-B*35:01. The assay is described as above. Particulars: source organism: Homo sapiens.
Another assay concerns the target HLA-B*37:01. The description is as above. The note with it: source organism: Homo sapiens.
Where [19] appears, read: source organism: Mycobacterium tuberculosis C.
Where [20] appears, read: source organism: Entamoeba histolytica.

As for ALFDRPAFK, the dissociation constant Kd (commonly a measure of binding affinity in units of concentration) in the assay with HLA-A*31:01 [1] is 0.0047 µM; with HLA-B*18:01 [2], at least 20 µM; in the assay with HLA-B*15:17, at least 20 µM; with HLA-B*58:01 [3] it was at least 20 µM; in the assay with HLA-A*26:02 it was at least 20 µM; with HLA-B*40:01, at least 20 µM. For the same sequence, the dissociation constant (Kd) in the assay with HLA-B*57:01, with HLA-A*01:01 [4], with HLA-A*69:01, with HLA-B*08:01 [5], in the assay with HLA-B*07:02 [6] and in the assay with HLA-B*46:01 was at least 20 µM throughout. Besides, the Kd with HLA-A*68:02 [7] is at least 20 µM; with HLA-A*11:01 [8], 0.024 µM; with HLA-B*48:01, at least 20 µM; with HLA-B*08:02 it was at least 20 µM; with HLA-B*08:03 it was at least 20 µM; with HLA-B*83:01 (setting [19]), at least 5 µM. For the same sequence, the Kd with HLA-A*02:06 is 0.325 µM; in the assay with HLA-B*15:01 it was at least 20 µM; in the assay with HLA-A*26:03, at least 20 µM; with HLA-B*15:42 (setting [19]), at least 5 µM; with HLA-B*45:06 (setting [19]), at least 5 µM; with HLA-B*27:05, at least 20 µM.
In the case of SYMSTFPLF, the equilibrium dissociation constant (Kd) was at most 0.001 µM in the assay with HLA-A*24:03; at least 5 µM with HLA-B*83:01 (setting [20]); 0.0005 µM with HLA-A*32:07; 0.0883 µM in the assay with HLA-C*04:01; at most 0.0001 µM with HLA-C*14:02; at least 5 µM with HLA-B*15:42 (setting [20]). The equilibrium dissociation constant (Kd) with HLA-B*45:06 (setting [20]) was at least 5 µM; in the assay with HLA-A*24:02 [9], at most 0.0001 µM; in the assay with HLA-C*06:02 it was 0.613 µM; with HLA-A*32:15, 0.784 µM.
In the case of YPDPVIKV, the IC50 (as a rule, the point on the concentration scale where inhibition reaches its midpoint) with HLA-B*14:02 was at least 20 µM; with HLA-A*31:01 [10], at least 20 µM; in the assay with HLA-B*18:01 [11], 0.296 µM; in the assay with HLA-A*02:01, 4.97 µM; with HLA-B*58:01 [12], at least 20 µM; with HLA-B*51:01, at least 20 µM. Besides, the IC50 with HLA-A*01:01 [13] was at least 20 µM; with HLA-B*44:03, at least 20 µM; with HLA-B*08:01 [14], at least 20 µM; in the assay with HLA-B*07:02 [15], 1.46 µM; in the assay with HLA-A*29:02 it was at least 20 µM; with HLA-A*68:02 [16], 0.317 µM. Moreover, the IC50 with HLA-A*25:01 is at least 20 µM; with HLA-A*11:01 [17], at least 20 µM; with HLA-A*24:02 [18], at least 20 µM; with HLA-A*03:01 it was at least 20 µM; with HLA-B*40:02 it was 0.54 µM; with HLA-B*53:01, at least 20 µM. The 50% inhibitory concentration (IC50) in the assay with HLA-B*35:01 is 0.737 µM; with HLA-B*37:01, at least 20 µM.
